The values below come from publication PMC9733292 (Journal of Translational Medicine, 2022).

The assay has as its target T1, CD3 receptor (CD3ε subunit of the T cell receptor complex) (Homo sapiens, UniProt P07766).
T1 construct: also called CD3 antigen; CD3 receptors
The assay is described as follows: flow cytometry on cells. The note with it: one partner purified.

T1 sequence (P07766 23-207, one chain of several): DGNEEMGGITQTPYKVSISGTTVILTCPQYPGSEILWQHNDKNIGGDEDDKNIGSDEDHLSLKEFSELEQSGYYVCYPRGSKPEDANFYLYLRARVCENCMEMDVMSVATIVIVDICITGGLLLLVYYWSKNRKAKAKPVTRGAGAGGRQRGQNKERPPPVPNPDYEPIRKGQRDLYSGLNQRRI

B1: scFv OKT3 wild-type (scFv, V domains shown)
VH: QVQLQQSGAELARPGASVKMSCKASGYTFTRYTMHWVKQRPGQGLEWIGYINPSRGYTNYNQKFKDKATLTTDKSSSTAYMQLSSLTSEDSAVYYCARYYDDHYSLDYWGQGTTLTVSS
VL: QIVLTQSPAIMSASPGEKVTMTCSASSSVSYMNWYQQKSGTSPKRWIYDTSKLASGVPAHFRGSGSGTSYSLTISGMEAEDAATYYCQQWSSNPFTFGSGTKLEIN
notes: also called OKT3 single chain variable fragment
As to B1, the binding result is “binds”.

B2: scFv OKT3 E129AzK (scFv, V domains shown)
VH: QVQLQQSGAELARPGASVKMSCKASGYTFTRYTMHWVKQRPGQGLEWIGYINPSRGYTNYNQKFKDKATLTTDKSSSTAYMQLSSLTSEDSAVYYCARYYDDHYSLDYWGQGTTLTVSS
VL: B1 VL
notes: also called scFv OKT3 E129AzK variant
Consider B2, for which the binding result was “binds”.
